Key:
[1] = tested on: antibody-dependent cellular phagocytosis (ADCP); assay: ADCP activity of mFc mutant (Example 1 statement); assay type: cell-based; conditions: compared to WT
FcγRIIb = target: T1, FcγRIIb (Homo sapiens, UniProt P31994); assay: Binding of mFc mutant compared with wild-type (Example 1 statement); conditions: as compared to WT
T1 sequence (P31994 43-310): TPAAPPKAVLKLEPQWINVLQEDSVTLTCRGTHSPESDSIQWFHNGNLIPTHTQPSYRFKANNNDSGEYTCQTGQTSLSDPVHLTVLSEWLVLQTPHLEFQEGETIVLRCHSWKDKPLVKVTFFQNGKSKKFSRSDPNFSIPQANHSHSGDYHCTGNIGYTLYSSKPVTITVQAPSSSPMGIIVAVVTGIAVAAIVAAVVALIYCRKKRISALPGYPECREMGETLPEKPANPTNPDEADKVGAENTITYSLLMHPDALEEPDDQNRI

CD32b = target: T2, CD32b (Homo sapiens, UniProt P31994); assay: Bio Layer Interferometry (Octet) binding of monomeric Fc variants to FcγR; conditions: huFcγR variant CD32b; 1:1 Langmuir fit; * denotes weak binding/inaccurate KD
T2 construct: purchased Beijing Sino Biological Inc
T2 sequence (P31994 43-310): T1 sequence (P31994 43-310)

FcγRIIIa = FcγRIIIa (Homo sapiens, UniProt P08637); assay: Binding affinity of mFc mutant compared with wild-type (Example 1 statement); conditions: comparative with wild-type (WT)
Chain of FcγRIIIa (P08637 17-254): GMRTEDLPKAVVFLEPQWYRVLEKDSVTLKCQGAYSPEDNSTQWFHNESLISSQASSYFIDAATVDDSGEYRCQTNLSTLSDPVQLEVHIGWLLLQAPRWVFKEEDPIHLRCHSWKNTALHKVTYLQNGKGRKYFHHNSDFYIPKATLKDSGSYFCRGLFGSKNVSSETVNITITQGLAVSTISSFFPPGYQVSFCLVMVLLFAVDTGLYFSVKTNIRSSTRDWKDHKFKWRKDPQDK

[2] = tested on: antibody-dependent cell-mediated cytotoxicity (ADCC); assay: ADCC activity of mFc mutant (Example 1 statement); assay type: cell-based; conditions: compared to WT
CD16a (176F) = target: T3, CD16a (176F) (Homo sapiens, UniProt P08637); assay: Bio Layer Interferometry (Octet) binding of monomeric Fc variants to FcγR; conditions: huFcγR variant CD16a(176F); 1:1 Langmuir fit; * denotes weak binding/inaccurate KD
T3 construct: purchased Beijing Sino Biological Inc
T3 sequence (P08637 17-254): as above

Question: With “Mono-Fc DLE: modified Fc region of human IgG1 with DLE mutation (Ser239Asp/Ala330Leu/Ile332Glu)” as the substance, how does the ADCP activity [1] read?
Answer: enhanced

Question: What about the “binding to inhibitory FcγRIIb” value (FcγRIIb) of the same substance?
Answer: low binding

Question: What about the Kd (CD32b) of the same substance?
Answer: 1.34 nM

Question: What about the “binding affinity to FcγRIIIa” value (FcγRIIIa) of the same substance?
Answer: increased FcγRIIIa affinity

Question: And the ADCC activity [2]?
Answer: enhanced

Question: Which Kd (CD32b) does the source give for “Mono-Fc WT: wild-type Fc region of human IgG1 (aa 216-447), expressed as about 26 kDa monomeric form [reference compound]” here?
Answer: 3760 nM

Question: And the Kd (CD16a (176F))?
Answer: < 0.001 nM

— patent US20250282876A1, “STABLE Fc FRAGMENTS, CONJUGATES, COMPOSITIONS, AND METHODS OF USE” (PURDUE RESEARCH FOUNDATION, priority 2022, published 2025)
